Results on eight molecules are retold here after patent US20140287989A1 (CENTRE NATIONAL DE LA RECHERCHE SCIENTIFIQUE, published 2014).

Square brackets hold non-standard residues; d marks the D form. Phe(3,4-Cl2) = N[C@@H](Cc1ccc(Cl)c(Cl)c1)C(=O)O; Phe(4-Br) = N[C@@H](Cc1ccc(Br)cc1)C(=O)O; Phe(4-Cl) = N[C@@H](Cc1ccc(Cl)cc1)C(=O)O; Phe(4-Me) = Cc1ccc(C[C@H](N)C(=O)O)cc1; hCha = N[C@@H](CCC1CCCCC1)C(=O)O; Cha = N[C@@H](CC1CCCCC1)C(=O)O

Test [1] deals with E. coli β clamp (β subunit of DNA polymerase III, dnaN gene product) (E. coli) (UniProt P0A988). Put plainly: ITC, peptide 400 µM into β ring 30 µM, 25 °C. For orientation: In ITC the heat of successive injections is recorded.
Chain of E. coli β clamp (β subunit of DNA polymerase III, dnaN gene product) (E. coli) (P0A988 whole entry): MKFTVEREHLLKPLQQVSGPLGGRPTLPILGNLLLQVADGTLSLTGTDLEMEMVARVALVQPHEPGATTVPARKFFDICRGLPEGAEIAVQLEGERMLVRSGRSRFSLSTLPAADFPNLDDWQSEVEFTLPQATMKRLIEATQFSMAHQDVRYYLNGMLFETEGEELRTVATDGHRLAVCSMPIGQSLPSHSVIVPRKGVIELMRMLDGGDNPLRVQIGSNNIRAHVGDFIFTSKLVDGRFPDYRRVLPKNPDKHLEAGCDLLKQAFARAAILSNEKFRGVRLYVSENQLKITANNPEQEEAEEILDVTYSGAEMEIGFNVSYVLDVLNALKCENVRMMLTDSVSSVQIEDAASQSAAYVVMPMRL
The target is the same in test [2]. In words: ITC, peptide 400 µM into β ring 30 µM, 25 °C, second experiment.
Test [3] deals with E. coli β clamp (β subunit of DNA polymerase III, dnaN gene product), N-tagged (E. coli) (UniProt P0A988). In words: SPR competition on immobilised P1; ΔG = -RT ln Ki.
Chain of E. coli β clamp (β subunit of DNA polymerase III, dnaN gene product), N-tagged (E. coli) (P0A988 whole entry): as above
For test [4] the target is unchanged. Put plainly: SPR competition (Biacore 3000): β ring 0.25 µM mixed with the challenger, injected on immobilised P1. For orientation: Surface plasmon resonance follows binding to a sensor surface in real time, without labels.
Test [5] concerns the target E. coli β clamp (β subunit of DNA polymerase III, dnaN gene product) (E. coli) (UniProt P0A988). Put plainly: SPR competition, β ring on immobilised P1.
For test [6], the target named is E. coli β clamp (β subunit of DNA polymerase III, dnaN gene product), N-tagged (E. coli) (UniProt P0A988). Put plainly: SPR competition on immobilised P1.
For test [7] the target is unchanged.
For test [8] the target is unchanged. In words: ITC, peptide 400 µM into β ring 20 or 30 µM, 25° C.
Test [9] shares this target. In words: ITC.
The target is the same in test [10]. Put plainly: ITC / SPR.
Test [11] deals with T1, E. coli β clamp (β subunit of DNA polymerase III, dnaN gene product) (E. coli, UniProt P0A988 1-366).
T1 construct: Expressed in BL21 E. coli from pET15b with an N-terminal tag; also called β ring; β protein; not shown: N-terminal tag from plasmid pET15b ('N-tagged protein', purified on Ni-NTA)
Put plainly: SPR competition, concentration of peptide that challenges 50% of the binding of β ring to P1.

Test [12] has as its target T1, E. coli β clamp (β subunit of DNA …). Put plainly: from ITC data; compared residues pMeF/diClF.
Test [13] shares this target. In words: SPR competition, β ring on immobilised P1.
Test [14] shares this target. Put plainly: from ITC data; compared residues F/diClF.
Test [15] shares this target. Put plainly: ITC, peptide 400 µM into β ring 20 µM, 25 °C, second experiment.
Test [16] has the same target. Put plainly: from ITC data; compared residues pClF/diClF.
Test [17] shares this target. Put plainly: ITC, peptide 400 µM into β ring 20 µM, 25 °C.
Test [18] shares this target. Put plainly: from ITC data; compared residues pBrF/diClF.
Test [19] shares this target. Put plainly: from ITC data; compared residues F/pMeF.
Test [20] shares this target. Put plainly: from ITC data; compared residues F/pBrF.
The target is the same in test [21]. In words: from ITC data; compared residues pMeF/pBrF.
Test [22] shares this target. In words: ITC, peptide 400 µM into β ring 30 µM, 25 °C, second experiment.
For test [23] the target is unchanged. Put plainly: from ITC data; compared residues L/Cha.
For test [24] the target is unchanged. In words: ITC, peptide 400 µM into β ring 30 µM, 25 °C.
Test [25] shares this target. In words: from ITC data; compared residues pBrF/pClF.
Test [26] shares this target. Put plainly: from ITC data; compared residues pMeF/pClF.
The target is the same in test [27]. In words: from ITC data; compared residues F/pClF.
Test [28] concerns the target T2, E. coli β clamp (β subunit of DNA polymerase III, dnaN gene product) (E. coli, UniProt P0A988 1-366).
T2 construct: Homodimeric ring; N-tagged protein expressed in BL21 E. coli and purified on Ni-NTA and MonoQ; also called β ring; β protein; not shown: N-terminal tag from the pET15b plasmid
Put plainly: SPR competition; ΔG = -RT ln Ki.

Test [29] has as its target T2, E. coli β clamp (β subunit of DNA …). In words: SPR competition: peptide with β ring injected on immobilized P1.
Test [30] has the same target. The test is described as above. The source holds these as a separate data set.

For “P3 (RQLVLF) (peptide; other documents disagree on this pair)”, in [1], the Kd (in general, the free concentration of one partner at which half of the binding sites on the other are occupied at equilibrium, for simple one-to-one binding) amounted to 2820 nM; the ΔG was -7.5 kcal/mol; the ΔH was -5770 cal/mol; the ΔS worked out at 6.05 cal/mol/deg. Also, in test [2], the dissociation constant Kd is 2320 nM, the ΔG is -7.6 kcal/mol, the ΔH was -5700 cal/mol and the ΔS came to 6.6 cal/mol/deg. Besides, the ΔG in test [3] was -7.04 kcal/mol. For the same molecule, the IC50 (commonly the point on the concentration scale where inhibition reaches its midpoint) in test [4] worked out at 8.62 µM. The molecule further registered a 50% inhibitory concentration (IC50) in test [5] of 8.62 µM.
In test [6], P14 (Ac-Q Cha DL diClF) (peptide) came in with an IC50 of 70 nM, a fold increase against P1 of 115 fold, a fold increase against P6 of 15 fold and a fold increase against the full PolIV enzyme of 4 fold. Further, the IC50, Pol IV based biochemical assay (inhibition of β dependent Pol IV elongation) in test [7] was 0.125 µM. In test [8], this molecule yielded a dissociation constant (Kd) of 65 nM. Besides, the equilibrium dissociation constant (Kd) in test [9] was 60 nM. In addition, in test [10], the fold increase in binding against P6 was 10 to 15 fold.

B1: P14 (Ac-Gln-Cha-Asp-Leu-(3,4-di-Cl)Phe-OH) (peptide)
peptide: Ac-Q[Cha]DL[Phe(3,4-Cl2)]-OH
SMILES: CC(=O)N[C@@H](CCC(N)=O)C(=O)N[C@@H](CC1CCCCC1)C(=O)N[C@@H](CC(=O)O)C(=O)N[C@@H](CC(C)C)C(=O)N[C@@H](Cc1ccc(Cl)c(Cl)c1)C(=O)O
notes: also called AcQChaDLdiClF; Ac Q Cha D L diClF
As for B1, the affinity in [11] corresponds to a Ki of 85 nM. Moreover, the “ΔΔG (ΔGj - ΔGi) of P14 against P11” value in [12] is -1.05 kcal/mol. The IC50 in test [13] was found to be 77 nM. Further, the “ΔΔG (ΔGj - ΔGi) of P14 against P7” value in [14] was -0.8 kcal/mol. In addition, in test [15], the Kd was 55 nM, the ΔG was -9.8 kcal/mol, the ΔH is -18100 cal/mol and the ΔS is -27.6 cal/mol/deg. Also, the “ΔΔG (ΔGj - ΔGi) of P14 against P12” value in [16] was -0.2 kcal/mol. In test [17], the Kd was determined as 73 nM, the ΔG was -9.6 kcal/mol, the ΔH is -18900 cal/mol and the ΔS was -30.8 cal/mol/deg. Further, in [18], the “ΔΔG (ΔGj - ΔGi) of P14 against P13” value is -0.52 kcal/mol.

B2: P11 (Ac-Gln-Cha-Asp-Leu-pMePhe-OH) (peptide)
peptide: Ac-Q[Cha]DL[Phe(4-Me)]-OH
SMILES: CC(=O)N[C@@H](CCC(N)=O)C(=O)N[C@@H](CC1CCCCC1)C(=O)N[C@@H](CC(=O)O)C(=O)N[C@@H](CC(C)C)C(=O)N[C@@H](Cc1ccc(C)cc1)C(=O)O
notes: also called AcQChaDLpMeF; Ac-Q Cha DL pMeF
In [13], B2 yielded an IC50 of 260 nM. In addition, the “ΔΔG (ΔGj - ΔGi) of P11 against P7” value in test [19] was 0.25 kcal/mol. In test [15], this molecule came in with a Kd of 362 nM, a ΔG of -8.6 kcal/mol, a ΔH of -14400 cal/mol and a ΔS of -19 cal/mol/deg. For the same molecule, in test [17], binding was characterised by a dissociation constant (Kd) of 401 nM, the ΔG is -8.6 kcal/mol, the ΔH is -14800 cal/mol and the ΔS is -20.4 cal/mol/deg.

B3: P13 (Ac-Gln-Cha-Asp-Leu-pBrPhe-OH) (peptide)
peptide: Ac-Q[Cha]DL[Phe(4-Br)]-OH
SMILES: CC(=O)N[C@@H](CCC(N)=O)C(=O)N[C@@H](CC1CCCCC1)C(=O)N[C@@H](CC(=O)O)C(=O)N[C@@H](CC(C)C)C(=O)N[C@@H](Cc1ccc(Br)cc1)C(=O)O
notes: also called AcQChaDLpBrF; Ac-Q Cha DL pBrF
As to B3, the 50% inhibitory concentration (IC50) in test [13] worked out at 96 nM. For the same molecule, in [20], the “ΔΔG (ΔGj - ΔGi) of P13 against P7” value is -0.28 kcal/mol. In [15], this molecule returned a dissociation constant Kd of 167 nM, a ΔG of -9.1 kcal/mol, a ΔH of -15200 cal/mol and a ΔS of -20.2 cal/mol/deg. In [17], this molecule displayed a Kd of 136 nM, a ΔG of -9.3 kcal/mol, a ΔH of -18100 cal/mol and a ΔS of -29.3 cal/mol/deg. Also, the “ΔΔG (ΔGj - ΔGi) of P13 against P11” value in test [21] was -0.53 kcal/mol.

B4: P7 (Ac-Gln-Cha-Asp-Leu-Phe-OH) (peptide)
peptide: Ac-Q[Cha]DLF-OH
SMILES: CC(=O)N[C@@H](CCC(N)=O)C(=O)N[C@@H](CC1CCCCC1)C(=O)N[C@@H](CC(=O)O)C(=O)N[C@@H](CC(C)C)C(=O)N[C@@H](Cc1ccccc1)C(=O)O
notes: also called AcQChaDLF; Ac Q Cha D L F
As for B4, the inhibition constant (Ki) (as a rule, the dissociation constant of the complex between target and ligand, obtained from inhibition or displacement) in test [11] came to 170 nM. In [22], this molecule displayed a Kd of 222 nM, a ΔG of -8.9 kcal/mol, a ΔH of -20500 cal/mol and a ΔS of -38.5 cal/mol/deg. In addition, the IC50 in test [13] was found to be 170 nM. Also, the “ΔΔG (ΔGj - ΔGi) of P7 against P6” value in test [23] is -0.66 kcal/mol. Also, in test [24], binding was characterised by a dissociation constant (Kd) of 246 nM, the ΔG was -8.9 kcal/mol, the ΔH is -21300 cal/mol and the ΔS is -41.2 cal/mol/deg.

B5: P12 (Ac-Gln-Cha-Asp-Leu-pClPhe-OH) (peptide)
peptide: Ac-Q[Cha]DL[Phe(4-Cl)]-OH
SMILES: CC(=O)N[C@@H](CCC(N)=O)C(=O)N[C@@H](CC1CCCCC1)C(=O)N[C@@H](CC(=O)O)C(=O)N[C@@H](CC(C)C)C(=O)N[C@@H](Cc1ccc(Cl)cc1)C(=O)O
notes: also called AcQChaDLpClF; Ac-Q Cha DL pClF
Take B5: the “ΔΔG (ΔGj - ΔGi) of P12 against P13” value in test [25] is -0.32 kcal/mol. The half-inhibitory concentration (IC50) in test [13] came out at 160 nM. In addition, in test [15], binding was characterised by a dissociation constant (Kd) of 122 nM, the ΔG was -9.4 kcal/mol, the ΔH was -14300 cal/mol and the ΔS is -16.3 cal/mol/deg. Moreover, the “ΔΔG (ΔGj - ΔGi) of P12 against P11” value in test [26] is -0.85 kcal/mol. Further, the “ΔΔG (ΔGj - ΔGi) of P12 against P7” value in test [27] was -0.6 kcal/mol. In test [17], this molecule gave a dissociation constant (Kd) of 89 nM, a ΔG of -9.6 kcal/mol, a ΔH of -15000 cal/mol and a ΔS of -18.1 cal/mol/deg.

B6: P8, Ac-Gln-hCha-Asp-Leu-Phe-OH (peptide)
peptide: Ac-Q[hCha]DLF-OH
SMILES: CC(=O)N[C@@H](CCC(N)=O)C(=O)N[C@@H](CCC1CCCCC1)C(=O)N[C@@H](CC(=O)O)C(=O)N[C@@H](CC(C)C)C(=O)N[C@@H](Cc1ccccc1)C(=O)O
notes: X stands for the non-natural residue; also called Ac Q hCha DLF
With B6, the ΔG in test [28] was -5.74 kcal/mol. Further, the IC50 in [29] and in test [30] was 82.8 µM in each case.
